{"source": "patent US20060286609A1", "about": "(BIOCHECK, published 2006)", "binders": {"B1": {"name": "rabbit monoclonal anti-mouse Id1, clone #BCH-1/#37-2 (antibody, V domains shown)", "VH": "QSVEESGGRLVTPGTPLTLTCKVSGFDINSYAMDWFRQAPGKGLEWIGMMSTRGNTYYTSWAKGRFTISKTSSTTVDLKMTSLTTEDTATYFCARGGLWGPGTLVTVSS", "VL": "RVLTQTASPVSAAVGGTVTINCQASQSVYNGNRLGWYQLKPGQSPKELIHDASTLASGVPSRFRGSGSGTQFTLTINDVQCDDAATYYCVGSYACSTGDCNVFGGGTEVVVK", "notes": "Rabbit IgG from hybridoma, Protein G purified; also called m Id1 MoAb 37-2; Rabbit Monoclonal Anti-Mouse Id1 (#37-2)"}}, "experiment_in_all_cases": "ELISA, coated antigen, Ab 0.25 ug/ml", "key": {"[1]": {"biological_target": "T1, glutathione S-transferase (GST) (UniProt P08515 1-218 = GST)", "T1 construct": "Coated on wells as control for the fusion partner of the immunogen", "T1 sequence (P08515 whole entry, the tested form may be a part)": "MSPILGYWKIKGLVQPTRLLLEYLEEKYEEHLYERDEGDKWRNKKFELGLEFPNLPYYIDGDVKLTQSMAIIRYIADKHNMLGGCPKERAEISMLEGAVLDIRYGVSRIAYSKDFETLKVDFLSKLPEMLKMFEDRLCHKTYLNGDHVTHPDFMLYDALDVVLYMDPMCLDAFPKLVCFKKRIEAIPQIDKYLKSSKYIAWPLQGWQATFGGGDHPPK", "description": "(§1) Incubate plates at 2-8° C. overnight (16-24 hours). [0145] 11. Shake off the BSA solution. [0146] 12. Dispense 250 μL of 2.5% sucrose solution into each well. [0147] 13. Incubate plates at 2-8° C. for 4 hours. [0148] 14. Shake off sucrose solution. [0149] 15. Dry in vacuum at room temperature overnight. Screening Method [0150] 1. Dispense 100 μL of antibody diluent, diluted rabbit polyclonal anti-Id1 into appropriate wells. […] 2. Incubate at room temperature with mechanical shaking at 750 rpm for 90 minutes. [0152] 3. Remove the incubation mixture by flicking plate content into an appropriate waste container, followed by rinsing the wells 5 times with distilled water. […] 4. Strike the wells sharply onto absorbent paper or paper towels to remove all residual water droplets. [0154] 5. Dispense 100 μL of Goat Anti-Rabbit IgG-HRP Conjugate Reagent into each well. Gently mix for 5 seconds. [0155] 6. Incubate at room temperature with mechanical shaking at 750 rpm for 90 minutes. […] 7. Repeat procedures 3 and 4. [0157] 8. Dispense 100 μL of TMB Reagent into each well. Gently mix for 5 seconds. [0158] 9. Incubate at room temperature with mechanical shaking at 750 rpm for 20 minutes. [0159] 10. Add 100 μL of Stop Solution (1N HCl) into each well. [0160] 11. Gently mix for 10 seconds to ensure a complete mixing. […] 12. Read optical density (absorbance) at 450 nm. Results from this assay were used to select the rabbit sera with the highest antibodies titer that selectively reacts with mouse Id1 or human Id1 or both.\n(§2) A comparison was carried out between the reactivity of the rabbit monoclonal anti-mouse Id1, clone #BCH-1/#37-2, of this invention and the mouse monoclonal anti-mouse/human Id1 from BD Pharmingen with the following antigens prepared in Example 5: mouse Id1:His, human Id1:His, human Id2:His, human Id3:His, and GST. These antigens and protein were used to coat the wells.\n(§3) Materials and methods were those described in Example 9 except (a) Pharmingen's mouse monoclonal anti-mouse Id1 was used in addition to the rabbit monoclonal anti-mouse Id1 (Example 10), and (b) goat anti-mouse IgG-HRP conjugate was used to process the wells treated with the Pharmingen monoclonal antibody and polyclonal goat anti-rabbit IgG-HRP conjugate was used to process wells treated with rabbit monoclonal anti-mouse Id1."}, "[2]": {"biological_target": "T2, Mouse Id1: Histidine (mouse, UniProt P20067-2 1-148)", "T2 construct": "E. coli fusion protein (vector pGW07); also called m-Id1-His; not shown: His-tag", "T2 sequence": "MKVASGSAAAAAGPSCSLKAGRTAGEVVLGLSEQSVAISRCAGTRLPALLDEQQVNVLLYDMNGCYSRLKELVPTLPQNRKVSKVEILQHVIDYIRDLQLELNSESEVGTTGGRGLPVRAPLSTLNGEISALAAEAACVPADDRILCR", "description": "as §1, §2, §3"}, "[3]": {"biological_target": "T3, Human Id2: Histidine (human, UniProt Q02363 1-134, limits assumed)", "T3 construct": "E. coli fusion protein (vector pGW07); also called h-Id2: His; not shown: His-tag", "T3 sequence (looked up)": "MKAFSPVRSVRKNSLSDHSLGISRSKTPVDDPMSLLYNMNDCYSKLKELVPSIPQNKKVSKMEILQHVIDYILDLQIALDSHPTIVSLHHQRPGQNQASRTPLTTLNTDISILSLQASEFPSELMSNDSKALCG", "description": "as §1, §2, §3"}}}
{"binder": "B1", "values": [{"measurement": "A450", "setting": "[1]", "value": 0.051, "unit": "A450"}, {"measurement": "A450", "setting": "[2]", "value": 2, "unit": "A450"}, {"measurement": "A450", "setting": "[3]", "value": 0.049, "unit": "A450"}]}
